Test results from patent US6608174B1, “Radiolabeled vasoactive intestinal peptide analogs for diagnosis and radiotherapy” (Dabur Research Foundation, priority 2000, dated 2003).
Blank lines part the entries; values can stand above or below the molecule they belong to. Square brackets hold non-standard residues; d marks the D form. Ends that are not written are not given here. dPhe(4-Cl) = N[C@H](Cc1ccc(Cl)cc1)C(=O)O; Aib = CC(C)(N)C(=O)O

Columns and labels:
VIP receptors = test: Displacement assay using 125I labeled VIP on human tumor cell lines; assay type: binding; details: for IC50: inhibition of 125I labeled VIP binding
Experimental: Peptides of the invention were assayed for biological activity in homogeneous competition binding assays using ^125I labeled VIP peptide (SEQ ID NO:1) and in heterogeneous displacement assays using either ^125I labeled VIP (10-28) fragment (Tyr-Thr-Arg-Leu-Arg-Lys-Gln-Met-Ala-Val-Lys-Lys-Tyr-Leu-Asn-Ser-Ile-Leu-Asn-NH2) (SEQ ID NO: 12) or ^125I labeled VIP (SEQ ID NO:1). The assays were performed on a variety of human tumor cell lines.
In the practice of these methods, the peptide was radioiodinated using the iodogen method. Briefly, 5 μg of the peptide in 10 μl of 50 mM PBS (pH 7.5), an appropriate amount of the radioisotope and 50 μg-100 μg iodogen were incubated at room temperature for 15-30 min with occasional mixing. Radioiodinated peptide was purified from unincorporated radioactive iodine by purification on a Sep Pak C18 cartridge, essentially following the same procedure as described for technetium labeling.
Displacement assays were performed at 4-8° C. Briefly, 50,000 cells were plated per well of a 24 well plate and allowed to adhere overnight. Before the assay, the cells were washed twice with ice cold Binding buffer (25 mM HEPES, 10 mM […] MgCl2 and 1% BSA in RPMI 1640 medium). The cells were incubated for 2-3hrs with an appropriate concentration (0.1-10 nM) of ^125I labeled VIP (SEQ ID NO:1) in the presence and absence of the cold ligand (SEQ ID NO: 2) (1 nM-10 μM). The non specific binding was ascertained using 10 μM of VIP. After incubation, the cells were washed thrice with the Binding buffer to remove the unbound peptide. The cells were lysed and counts were measured in a Gamma counter. From a comparison of the extent of binding in the presence or absence of the unlabeled peptide, a concentration was determined corresponding to inhibition of ^125I labeled VIP binding by 50%. Different tumor cell lines were assayed using the above described displacement assay: HT29 (human colorectal adenocarcinoma); PTC (human primary tumor cells adenocarcinoma); KB (human squamous cell carcinoma); 4451 (human squamous cell carcinoma); L132 (human lung carcinoma); A549 (human lung carcinoma); HBL100 (human breast carcinoma) and PA1 (human ovarian carcinoma). Cells were grown in RPMI 1640 supplemented with 10% fetal calf serum, glutamine and antibiotics using standard cell culture techniques (see Animal Cell Culture: A Practical Approach, Freshney, ed, IRL press: Oxford, UK, 1992).

[1] = biological target: VIP receptors on human tumor cell lines (human); test: displacement of 125I labeled VIP on 4451 cells
[2] = biological target: low affinity (µM range), high surface expression receptor on human tumor cells (VIP receptor) (human); test: homologous radioligand competition, 125I-SEQ ID NO:2 on PTC cells
[3] = biological target: high affinity (nM range), low surface expression receptor on human tumor cells (VIP receptor) (human); test: as above
[4] = biological target: VIP receptors on human tumor cell lines (human); test: displacement of 125I labeled VIP on PA1 cells
[5] = biological target: low affinity (µM range), high surface expression receptor on human tumor cells (VIP receptor) (human); test: maximal binding, 125I-SEQ ID NO:2 on A549 cells
[6] = biological target: high affinity (nM range), low surface expression receptor on human tumor cells (VIP receptor) (human); test: maximal binding, 125I-SEQ ID NO:2 on A549 cells
[7] = biological target: low affinity (µM range), high surface expression receptor on human tumor cells (VIP receptor) (human); test: homologous radioligand competition, 125I-SEQ ID NO:2 on L132 cells
[8] = biological target: high affinity (nM range), low surface expression receptor on human tumor cells (VIP receptor) (human); test: as above
[9] = biological target: low affinity (µM range), high surface expression receptor on human tumor cells (VIP receptor) (human); test: homologous radioligand competition, 125I-SEQ ID NO:2 on A549 cells
[10] = biological target: VIP receptors on human tumor cell lines (human); test: displacement of 125I labeled VIP on PTC cells
[11] = biological target: low affinity (µM range), high surface expression receptor on human tumor cells (VIP receptor) (human); test: homologous radioligand competition, 125I-SEQ ID NO:2 on HBL 100 cells
[12] = biological target: high affinity (nM range), low surface expression receptor on human tumor cells (VIP receptor) (human); test: as above
[13] = biological target: VIP receptors on human tumor cell lines (human); test: displacement of 125I labeled VIP (10-28) fragment on A549 cells

Molecule: His-Ser-Asp-Aib-Val-4-Cl-D-Phe-Thr-Asp-Asn-Tyr-Thr-Arg-Leu-Arg-Lys-Gln-Leu-Ala-Val-Lys-Lys-Tyr-Leu-Asn-Ser-Ile-Leu-Asn-NH2 (HSD[Aib]V[dPhe(4-Cl)]TDNYTRLRKQLAVKKYLNSILN-NH2; N-terminus assumed; SMILES CC[C@H](C)[C@H](NC(=O)[C@H](CO)NC(=O)[C@H](CC(N)=O)NC(=O)[C@H](CC(C)C)NC(=O)[C@H](Cc1ccc(O)cc1)NC(=O)[C@H](CCCCN)NC(=O)[C@H](CCCCN)NC(=O)[C@@H](NC(=O)[C@H](C)NC(=O)[C@H](CC(C)C)NC(=O)[C@H](CCC(N)=O)NC(=O)[C@H](CCCCN)NC(=O)[C@H](CCCNC(=N)N)NC(=O)[C@H](CC(C)C)NC(=O)[C@H](CCCNC(=N)N)NC(=O)[C@@H](NC(=O)[C@H](Cc1ccc(O)cc1)NC(=O)[C@H](CC(N)=O)NC(=O)[C@H](CC(=O)O)NC(=O)[C@@H](NC(=O)[C@@H](Cc1ccc(Cl)cc1)NC(=O)[C@@H](NC(=O)C(C)(C)NC(=O)[C@H](CC(=O)O)NC(=O)[C@H](CO)NC(=O)[C@@H](N)Cc1c[nH]cn1)C(C)C)[C@@H](C)O)[C@@H](C)O)C(C)C)C(=O)N[C@@H](CC(C)C)C(=O)N[C@@H](CC(N)=O)C(N)=O) [SEQ ID NO:2, VIP receptor antagonist, preferred peptide (Xxx = Aib)]
IC50 (VIP receptors; 4451 cells): 7.1 nM
IC50 (VIP receptors; A549 cells): 4.3 nM
IC50 (VIP receptors; HBL 100 cells): 5.41 nM
IC50 (VIP receptors; HT29 cells): 2.78 nM
IC50 (VIP receptors; KB cells): 6.2 nM
IC50 (VIP receptors; L132 cells): 6.8 nM
IC50 (VIP receptors; PA1 cells): 7.6 nM
IC50 (VIP receptors; PTC cells): 2.53 nM
displacement of binding of radiolabelled VIP to the cell lines (VIP receptors; all cell lines of Table IV): significantly displace

IC50 [1]: 7.1 nM
Kd [2]: 1180 nM
Kd [3]: 1.77 nM
IC50 [4]: 7.6 nM
Bmax2 [5]: 48.3 nM
Bmax1 [6]: 540 pM
Kd [7]: 1030 nM
Kd [8]: 2.6 nM
Kd [9]: 1530 nM
IC50 [10]: 2.53 nM
Kd [11]: 1600 nM
Kd [12]: 2.13 nM
IC50 [13]: 0.275 nM
Molecule: HSD[Aib]V[dPhe(4-Cl)]TDNYTRLRKQLAVKKYLNSILN-NH2 (also: 125I-labelled form (iodogen) used as tracer)
